The values below come from patent publication US20120003180A1.

Experiment [1] deals with α5β1 integrin protein, covalently immobilised on the optical biosensor cuvette. The experiment is described as follows: optical biosensor (IAsys), α5β1 immobilised, D3904A DV free in solution; Kd from Koff/Kon.
The target is the same in experiment [2]. The experiment is described as follows: optical biosensor (IAsys), α5β1 immobilised, D3904A DV free in solution.
For experiment [3] the target is unchanged. The experiment is described as follows: optical biosensor (IAsys), α5β1 immobilised.
For experiment [4] the target is unchanged. The experiment is described as follows: optical biosensor (IAsys), α5β1 immobilised, LG3 free in solution; Kd from Koff/Kon.
The target is the same in experiment [5]. The experiment is described as follows: optical biosensor (IAsys), α5β1 immobilised, LG3 free in solution.

pKd: −log10 of the molar value.

As usually defined, the pKd is −log10 of the Kd, conventionally taken in molar units. The low end stands for a high Kd, the high end for a low Kd. By koff is commonly meant the first-order rate constant of dissociation. Higher therefore signals fast dissociation. For “D3904A DV (perlecan Domain V with DGR mutated to AGR), C-terminal 6×His tag (from UniProt P98160 3687-4391) (ligand)”, the pKd in experiment [1] is 6.43. In experiment [2], the koff amounted to 0.22 s⁻¹. For the same substance, the affinity relative to non-mutated DV (fold of the affinity of non-mutated DV) in experiment [3] is less than 0.5.

As to “LG3, the C-terminal fragment of perlecan Domain V, with C-terminal 6×His tag (from UniProt P98160 4197-4391) (ligand)”, in experiment [4], the pKd is 3.00. The koff in experiment [5] worked out at 1.7 s⁻¹.
